Test results published in IntAct's records for PubMed 31695625.

Assays:
SLC2A9, Q9NRM0-1 = target: T1, SLC2A9, Q9NRM0-1
T1 sequence: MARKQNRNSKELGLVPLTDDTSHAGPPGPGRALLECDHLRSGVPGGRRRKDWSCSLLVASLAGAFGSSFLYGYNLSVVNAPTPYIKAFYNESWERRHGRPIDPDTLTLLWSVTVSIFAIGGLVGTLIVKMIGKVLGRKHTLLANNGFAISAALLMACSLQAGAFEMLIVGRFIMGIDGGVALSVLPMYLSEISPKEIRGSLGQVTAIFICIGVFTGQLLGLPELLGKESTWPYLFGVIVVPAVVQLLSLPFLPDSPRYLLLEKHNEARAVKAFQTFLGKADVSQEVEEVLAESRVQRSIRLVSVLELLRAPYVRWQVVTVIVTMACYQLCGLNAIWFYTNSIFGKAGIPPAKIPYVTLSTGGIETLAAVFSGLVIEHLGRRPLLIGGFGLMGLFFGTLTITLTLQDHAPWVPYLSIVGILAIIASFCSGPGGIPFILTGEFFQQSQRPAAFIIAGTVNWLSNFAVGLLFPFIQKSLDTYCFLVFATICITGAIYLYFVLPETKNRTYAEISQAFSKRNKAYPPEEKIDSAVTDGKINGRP

SLC2A9, Q9NRM0-2 = target: T2, SLC2A9, Q9NRM0-2
T2 sequence: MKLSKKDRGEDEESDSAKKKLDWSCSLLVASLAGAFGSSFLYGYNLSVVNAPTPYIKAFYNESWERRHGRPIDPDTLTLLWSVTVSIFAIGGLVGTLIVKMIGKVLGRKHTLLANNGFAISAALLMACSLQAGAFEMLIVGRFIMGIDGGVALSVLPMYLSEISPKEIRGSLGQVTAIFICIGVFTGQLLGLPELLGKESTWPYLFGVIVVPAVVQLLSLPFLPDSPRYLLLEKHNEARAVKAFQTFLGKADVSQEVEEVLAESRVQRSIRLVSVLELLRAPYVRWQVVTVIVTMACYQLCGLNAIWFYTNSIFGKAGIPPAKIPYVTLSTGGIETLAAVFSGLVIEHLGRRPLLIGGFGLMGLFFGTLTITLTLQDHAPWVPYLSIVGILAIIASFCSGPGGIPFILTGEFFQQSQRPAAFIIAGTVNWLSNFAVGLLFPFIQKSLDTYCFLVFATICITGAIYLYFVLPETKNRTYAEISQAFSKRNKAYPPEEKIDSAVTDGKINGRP

Substance | effect of a mutation on the interaction (SLC2A9, Q9NRM0-1) | effect of a mutation on the interaction (SLC2A9, Q9NRM0-2)
Integral membrane protein 2B (Homo sapiens) (from UniProt Q9Y287) N170Q | decreasing interaction strength | 
Integral membrane protein 2B (Homo sapiens) (from UniProt Q9Y287) E261A | with no effect | with no effect
